# B1: L-fucose dehydrogenase BmulJ_04919 from Burkholderia multivorans ATCC 17616 (enzyme, UniProt A0A0H3KNE7 1-258, looked up)
# chain: MDLNLQDKVVIVTGGASGIGGAISMRLAEERAIPVVFARHAPDGAFLDALAQRQPRATYLPVELQDDAQCRDAVAQTIATFGRLDGLVNNAGVNDGIGLDAGRDAFVASLERNLIHYYAMAHYCVPHLKATRGAIVNISSKTAVTGQGNTSGYCASKGAQLALTREWAVALREHGVRVNAVIPAEVMTPLYRNWIATFEDPEAKLAEIAAKVPLGRRFTTPDEIADTAVFLLSPRASHTTGEWLFVDGGYTHLDRALV
# Target: the molecule itself
# Assay: crystal structure
protein,measurement,value
B1,stoichiometry N,4

# Reference: paper PMC3542637 (Biochemistry, 2012)
